From article PMC6318295, “Plant HP1 protein ADCP1 links multivalent H3K9 methylation readout to heterochromatin formation” (Cell Research, 2018)

T1: ADCP1 Agenet 1/2 domain (amino acids 31-177) (Arabidopsis, UniProt Q500V5 31-177)
T1 chain: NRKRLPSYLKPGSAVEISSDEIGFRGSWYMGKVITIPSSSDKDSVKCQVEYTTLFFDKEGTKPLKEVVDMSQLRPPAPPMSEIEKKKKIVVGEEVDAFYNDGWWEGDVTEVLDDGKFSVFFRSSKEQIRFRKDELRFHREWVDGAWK


Assays:
[1] = target: ADCP1 Agenet 1/2 domain (amino acids 31-177) (Arabidopsis thaliana) (UniProt Q500V5); assay: ITC; H3 peptides (usually 1 mM) titrated into ADCP1 tandem Agenet domains (0.05-0.1 mM); 25 °C; 100 mM NaCl, 20 mM Tris-HCl, pH 7.5; MicroCal PEAQ-ITC; 'One Set of Sites' fitting model
[2] = target: ADCP1 Agenet 3/4 domain (amino acids 201-355) (Arabidopsis thaliana) (UniProt Q500V5); assay: as above
Sequence of ADCP1 Agenet 3/4 domain (amino acids 201-355) (Arabidopsis thaliana) (Q500V5 201-355): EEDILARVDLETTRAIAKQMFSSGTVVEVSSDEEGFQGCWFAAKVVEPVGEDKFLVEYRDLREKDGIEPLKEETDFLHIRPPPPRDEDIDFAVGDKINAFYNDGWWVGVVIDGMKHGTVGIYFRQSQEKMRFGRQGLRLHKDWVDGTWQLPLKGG

[3] = target: ADCP1 (Agenet Domain Containing Protein 1) Agenet 5/6, 376-517 (UniProt Q500V5); assay: ITC; details: reference: H3K9me2 peptide; sites S10
[4] = target: ADCP1 (Agenet Domain Containing Protein 1) Agenet 1/2, 31-177 (UniProt Q500V5); assay: ITC; details: reference: H3K9me2 peptide; sites S10
[5] = target: ADCP1 (Agenet Domain Containing Protein 1) Agenet 3/4, 201-355 (UniProt Q500V5); assay: ITC; details: reference: H3K9me2 peptide; sites S10
[6] = target: T1, ADCP1 Agenet 1/2 domain (amino acids …); assay: ITC
[7] = test system: H3(S10A)K9me3 NA with ADCP1; assay: Aurora B treatment of phase-separated ADCP1-H3(S10A)K9me3 NA; format: biochemical; details: kinase 5 µM, ATP 50 µM, 30 °C, 5 h
Protocol: (§1) Aurora B kinase, ATP (NEB, P0756S) and 10 × kinase buffer (CST, 9802S) were added to the nucleosome array. The final concentration of kinase was 5 µM and ATP was 50 µM. The mixture was incubated at 30 °C for 5 h. The reaction product was detected by the ph-H3S10 antibody (Abcam, ab5176).
(§2) ADCP1 Agenet domain 1-4 (1-355 aa) and Agenet 3-6 (201–517 aa) proteins were stored in 20 mM HepesNa, pH 7.4, 150 mM NaCl. A 1:1 molar ratio of Alex 488 (Invitrogen, A10254, dissolved in DMSO) was added into ADCP1 and the mixture was incubated at room temperature for 1 h. The excess dye was removed using MicroSpin G-50 column (GE Healthcare, 27533001). DAPI was added to native/K9me3/K9me3S10A 12× nucleosome array to label the DNA. Protein and nucleosome array were diluted to a proper concentration. Equal volume of nucleosome array and ADCP1 were mixed in a 384 well glass bottom plate (Cellvis, P384-1.5H-N). For Fig. 6a, the concentrations of three proteins were 30 μM. […] The sample volume in each well was 5–10 μL. After 1 h incubation at room temperature, images were captured by Nikon A1RMP confocal microscope with 100 × oil objective. For FRAP analysis, mean fluorescence intensities from five regions of interests (ROIs) of time-lapse images were computed. ROI-1 was the bleached droplet, ROI-2 was a non-bleached droplet, ROI-3 was a background region. NIS-element software was used for data analysis.

[8] = test system: ADCP1-H3K9me3 NA; assay: Aurora B treatment of phase-separated ADCP1-H3K9me3 NA; format: biochemical; details: kinase 5 µM, ATP 50 µM, 30 °C, 5 h
Protocol: as §1, §2

Molecule	Ka [1] [M⁻¹]	stoichiometry N [1]	Ka [2] [M⁻¹]	stoichiometry N [2]	further results
H3(1-15)K4me3 peptide	19000	1.12	24000	0.971	
H3(1-15)K9me2 peptide	333000	1.01			
H3(1-15)K9me2S10ph peptide			10000	1	
histone H3 (synthetic H3 peptides) 1-15 (from UniProt P59226) H3K9me2S10ph peptide					binding against the reference [3]: weaker; binding against the reference [4]: weaker; binding against the reference [5]: weaker
ARTKQTARKSTGGKA (trimethyl-Lys9, phospho-Ser10 (mature H3 numbering; precursor 10 and 11). Taken as the ITC peptide of Fig. 1e with limits 1-15 from the paper's other H3K9me peptides; the text uses the same name for the Aurora B-treated MLA nucleosome array, which is a different molecule) [H3K9me3S10ph]					Kd [6]: 42.5 µM
Aurora B: human Aurora B kinase, causes S10 phosphorylation (protein, UniProt Q96GD4 1-344, looked up) Aurora kinase B: MAQKENSYPWPYGRQTAPSGLSTLPQRVLRKEPVTPSALVLMSRSNVQPTAAPGQKVMENSSGTPDILTRHFTIDDFEIGRPLGKGKFGNVYLAREKKSHFIVALKVLFKSQIEKEGVEHQLRREIEIQAHLHHPNILRLYNYFYDRRRIYLILEYAPRGELYKELQKSCTFDEQRTATIMEELADALMYCHGKKVIHRDIKPENLLLGLKGELKIADFGWSVHAPSLRRKTMCGTLDYLPPEMIEGRMHNEKVDLWCIGVLCYELLVGNPPFESASHNETYRRIVKVDLKFPASVPMGAQDLISKLLRHNPSERLPLAQVSAHPWVRANSRRVLPPSALQSVA					dissolution of phase transition by Aurora B, H3(S10A)K9me3 NA [7]: not the latter can be dissolved by Aurora B treatment; dissolution of phase transition by Aurora B, H3K9me3 NA [8]: phase transition of the former but not the latter can be dissolved by Aurora B treatment
